# T1: recombinant human CD73 protein (ecto-5'-nucleotidase), expressed by the applicant, C-terminal 6x His tag (human, UniProt P21589 27-547)
# T1 sequence: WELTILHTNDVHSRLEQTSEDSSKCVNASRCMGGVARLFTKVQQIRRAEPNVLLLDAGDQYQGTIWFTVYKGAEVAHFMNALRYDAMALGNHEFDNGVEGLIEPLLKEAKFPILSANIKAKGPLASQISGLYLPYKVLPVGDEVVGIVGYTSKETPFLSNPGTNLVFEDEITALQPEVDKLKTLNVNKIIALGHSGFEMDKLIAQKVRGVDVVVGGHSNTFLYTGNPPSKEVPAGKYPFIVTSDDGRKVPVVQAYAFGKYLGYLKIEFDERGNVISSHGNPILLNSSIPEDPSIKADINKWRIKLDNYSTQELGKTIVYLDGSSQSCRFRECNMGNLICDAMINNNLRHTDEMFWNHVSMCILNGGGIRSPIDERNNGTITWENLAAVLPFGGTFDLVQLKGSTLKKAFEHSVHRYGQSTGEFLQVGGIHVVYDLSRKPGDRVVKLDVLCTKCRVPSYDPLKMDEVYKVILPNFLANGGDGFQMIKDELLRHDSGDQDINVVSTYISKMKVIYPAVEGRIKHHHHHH
# T2: CD73 on A549 cells (UniProt P21589 27-549, limits assumed)
# T2 sequence (looked up): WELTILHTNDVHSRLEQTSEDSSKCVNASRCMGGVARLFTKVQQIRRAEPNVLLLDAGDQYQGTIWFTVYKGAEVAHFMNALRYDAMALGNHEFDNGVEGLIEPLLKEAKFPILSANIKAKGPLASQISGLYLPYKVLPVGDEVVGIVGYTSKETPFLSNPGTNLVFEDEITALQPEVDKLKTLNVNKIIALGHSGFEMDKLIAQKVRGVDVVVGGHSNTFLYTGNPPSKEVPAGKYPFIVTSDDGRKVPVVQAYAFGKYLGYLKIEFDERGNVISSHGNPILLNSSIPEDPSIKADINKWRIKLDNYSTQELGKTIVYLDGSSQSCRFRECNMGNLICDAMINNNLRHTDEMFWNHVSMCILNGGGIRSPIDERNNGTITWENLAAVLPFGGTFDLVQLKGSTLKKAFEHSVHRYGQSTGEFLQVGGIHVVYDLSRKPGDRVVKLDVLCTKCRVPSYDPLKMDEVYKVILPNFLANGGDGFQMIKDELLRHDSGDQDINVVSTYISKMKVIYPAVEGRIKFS
# B1: anti-CD73 monoclonal antibody E1-B6 (antibody, V domains shown)
# VH: VKLQESGAELARPGASVKLSCKASGYTFTDYYINWVKQRTGQGLEWIGETYPGNGNTYYHEKFKGKATLTADRSSSTAYMQLSSLTSEDSAVYFCARGTYYGSSEYFDYWGQGTTVTVSS
# VL: DIVMTQSPKFMSTSVGDRVSITCKASQNVGTAVAWYQQRPGQSPKLLIYSASNRNTGVPDRFTGSGSGTDFTLTISNMQSEDLADYFCQQYSSYIFTFGSGTKLEIN
# notes: Mouse hybridoma antibody of the IgG type, purified from ascitic fluid
# B2: anti-CD73 monoclonal antibody 9-4 (antibody, V domains shown)
# VH: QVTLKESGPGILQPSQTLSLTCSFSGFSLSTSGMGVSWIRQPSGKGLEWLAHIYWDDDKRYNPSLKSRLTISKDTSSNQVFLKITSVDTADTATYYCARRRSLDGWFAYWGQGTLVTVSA
# VL: DIQMTQSPAALSASVGETVTITCRASGNIHNYLAWYQQKQGKSPQLLVYNTQILADGVPSRFSGSGSGTQYSLKINSLQPEDFGTFYCQHFWDSPWTFGGGTKMEIK
# notes: as for B1
# B3: anti-CD73 monoclonal antibody 06-6 (antibody, V domains shown)
# VH: QVQLQQSGPELVKPGASVRISCKASGYTFADYFMHWVRLRPGQGLEWIGWIYPGYVNIKYNEKFKGKATLTADKSSSTAYMQLSSLTSEDSAVYFCARGEDYDSAMDYWGQGTSVTVSS
# VL: GVVMTQTPLSLPVSLGDQASISCRSSQSLVHSNGNTYLHWYLQKPGQSPKLLIYKVSNRFSGVPDRFSGSGSGTDFTLKISRVEAEDLGVYFCSQSTHVPPWTFGGGTKLEIK
# notes: as for B1
# B4: anti-CD73 monoclonal antibody 81-2-2 (antibody, V domains shown)
# VH: QVQLQQPGAELVKPGASVKLSCKASGYTFTSYWMHWVKQRPGQGLEWIGEINPSNGRTNYNEKFKSKATLTVDKSSSTAYMQLSSLTSEDSAVYYCARRGTSGNFFDYWGQGTTLTVSS
# VL: DIKMTQSPSSMYASLGERVTITCKASQDINTYLSWFQQKPGKSPKTLIYRANRLVDGVPSRFSGSGSGQDYSLTISSLEYEDMGIYYCLQFDEFPYTFGGGTKLEIK
# notes: as for B1
# B5: anti-CD73 monoclonal antibody F2-2 (antibody, V domains shown)
# VH: VQLQESGPGLVKPSQSLSLTCTVTGHSITSDYVWNWIRQFPGNKLEWMGYISYSGIIKYNPSLKSRISITRDTSKNQFFLQLNSVTTEDTATYYCAGDEYFWFAYWGQGTTVTVSS
# VL: DIQMTQSPSSMYASLGERVTITCKASQDIKSYLSWYQQKPWKSPKTLIYYATNLADGVPSRFSGSGSGQDYSLTISSLESDDTATYYCLQHGESPYTFGGGTKLEIK
# notes: as for B1
# Biological target: T1, recombinant human CD73 protein …
# Experiment: cell-based or functional assay
row,Binder,"EC50 (µg/mL), Biochemical level, inhibition of the enzyme activity of CD73 [µg/mL]"
1,B1,0.232
2,B2,0.211
3,B3,0.206
4,B4,0.239
5,B5,0.109

# Biological target: T2, CD73 on A549 cells
# Experiment: cell-based or functional assay
row,Binder,"EC50 (µg/mL), Cell level (A549 cells), inhibition of the enzyme activity of CD73 [µg/mL]"
1,B1,0.182
2,B2,0.175
3,B3,0.147
4,B4,0.213
5,B5,0.0397

# Biological target: T1, recombinant human CD73 protein …
# Experiment: SPR, Biacore T200, antibody captured by anti-mouse Fc IgG, human CD73 injected, 25 °C, 1:1 fit
# Experimental: (§1) Anti-mouse Fc IgG was fixated on a CMS sensor chip by amine coupling in order to capture the antibody under test with the coupled anti-mouse Fc IgG. A series of human CD73 proteins having a predetermined concentration gradient were then injected, before the pH 1.7 glycine-HCl regeneration testing system that came with the reagent kit was used.
# (§2) HBS-EP+ (10 mM HEPES; pH7.4, 150 mM NaCl; 3 mM EDTA; and 0.05% P20) was used as the running buffer, and the testing temperature was 25° C.
# (§3) The binding constant (Ka), dissociation rate constant (Kd), and equilibrium constant (KD) were calculated with the Biacore T200 evaluation software by combining the model fitting data at a 1:1 ratio.
Binder,Kd [nM],koff [s⁻¹],kon [M⁻¹ s⁻¹]
B1,0.813,0.000387,476000
B2,0.452,0.00015,332000
B3,0.753,0.000183,242000
B4,0.49,0.000104,212000
B5,0.0318,1.71e-05,538000

# Biological target: T1, recombinant human CD73 protein …
# Experiment: SPR (Biacore T200), antibody captured on anti-mouse Fc IgG chip, human CD73 injected in a concentration series, 25 C, 1:1 fit; the sheet prints E-4 where the 1st table, row 5, column 4 prints 10^-5; E-4 agrees with the printed ka 4.764E+5 and KD 8.129E-10
# Experimental: as §1, §2, §3
row,Binder,koff [s⁻¹]
1,B1,0.000387

# Source: patent publication US20220356267A1 (JIANGSU KANION PHARMACEUTICAL, published 2022)
